Reference: patent US20230192896A1 (BIOVERATIV THERAPEUTICS, published 2023)
Changes are numbered by the printed parent chain.

B1: BIIB-9-1281 (antibody, V domains shown)
VH: QVQLQQWGAGLLKPSETLSLTCAVYGGSFSGYYWSWIRQPPGKGLEWIGEIDHSGSTNYNPSLKSRVTISVDTSKNQFSLKLSSVTAADTAVYYCARTTRSKYYGMDVWGQGTMVTVSS
VL: DIQMTQSPSTLSASVGDRVTITCRASQSISSWLAWYQQKPGKAPKLLIYKASSLESGVPSRFSGSGSGTDFTLTISSLQPEDFATYYCQQAISLPITFGGGTKVEIK
notes: IgG
B2: BIIB-9-1283 (antibody, V domains shown)
VH: QVQLVQSGAEVKKPGASVKVSCKASGYTFTSYYMVWVRQAPGQGLEWMGIINPSGGSTSYAQKFQGRVTMTRDTSTSTVYMELSSLRSEDTAVYYCARVPTYRYSYLAFDIWGQGTMVTVSS
VL: B1 VL with T10S, L11V, S28G, K50A, E55Q, I92S, L94F, I96P
notes: IgG
B3: BIIB-9-1272 (antibody, V domains shown)
VH: QVQLVQSGAEVKKPGASVKVSCKASGYTFTSYYMHWVRQAPGQGLEWMGIINPSGGSTSYAQKFQGRVTMTRDTSTSTVYMELSSLRSEDTAVYYCARDTGGYAFDIWGQGTLVTVSS
VL: B1 VL with T10S, L11V, S28G, K50A, E55Q, I92S, L94F, I96F
notes: IgG
B4: BIIB-9-1274 (antibody, V domains shown)
VH: B3 VH
VL: B1 VL with T10S, L11V, S28G, K50A, E55Q, I92N, L94F, I96F
notes: IgG
B5: BIIB-9-1279 (antibody, V domains shown)
VH: QVQLVQSGAEVKKPGASVKVSCKASGYTFTSYYMHWVRQAPGQGLEWMGIINPSGGSTSYAQKFQGRVTMTRDTSTSTVYMELSSLRSEDTAVYYCARGPTDSSGYLDMDVWGKGTTVTVSS
VL: B1 VL with T10S, L11V, S28G, K50A, E55Q, I92S, L94F, I96P
notes: IgG
B6: BIIB-9-1277 (antibody, V domains shown)
VH: QVQLVQSGAEVKKPGASVKVSCKASGYTFTSYYMHWVRQAPGQGLEWMGIINPSGGSTSYAQKFQGRVTMTRDTSTSTVYMELSSLRSEDTAVYYCARGGTGYYYGSGSRDGYHYYYGMDVWGQGTTVTVSS
VL: EIVMTQSPATLSVSPGERATLSCRASQSVSSYLAWYQQKPGQAPRLLIYDASNRATGIPARFSGSGSGTDFTLTISSLEPEDLAVYYCQQSANWPPTFGGGTKVEIK
notes: IgG
B7: BIIB-9-1287 (antibody, V domains shown)
VH: QLQLQESGPGLVKPSETLSLTCTVSGGSISSSDYYWGWIRQPPGKGLEWIGSIYYSGSTYYNPSLKSRVTISVDTSKNQFSLKLSSVTAADTAVYYCARSPRHKVRGPNWFDPWGQGTLVTVSS
VL: EIVLTQSPGTLSLSPGERATLSCRASQSVSSSYLAWYQQKPGQAPRLLIYGASSRATGIPDRFSGSGSGTDFTLTISRLEPEDFAVYYCQQYHLHPTFGGGTKVEIK
notes: IgG
B8: BIIB-9-1282 (antibody, V domains shown)
VH: B2 VH
VL: EIVMTQSPATLSVSPGERATLSCRASQSVSSNLAWYQQKPGQAPRLLIYGASTRATGIPARFSGSGSGTEFTLTISSLQSEDFAVYYCQQHNHLPITFGGGTKVEIK
notes: IgG
B9: BIIB-9-1285 (antibody, V domains shown)
VH: B2 VH
VL: B8 VL with H91A, N92S, H93N, L94F, I96P
notes: IgG
B10: BIIB-9-1284 (antibody, V domains shown)
VH: B2 VH
VL: B8 VL with M4L, S30G
notes: IgG
B11: BIIB-9-1278 (antibody, V domains shown)
VH: B2 VH with V99G, T101G, Y102E, R103L, Y104G, S105Y
VL: B8 VL with N92A, H93N, L94F, I96P
notes: IgG
B12: BIIB-9-3675 (antibody, V domains shown)
VH: QLQLQESGPGLVKPSETLSLTCTVSGGSISSTSYYWVWIRQPPGKGLEWIGSITASGSTYYNPSLKSRVTISVDTSKNQFSLKLSSVTAADTAVYYCARDKYQDYSFDIWGQGTMVTVSS
VL: B1 VL with T10S, L11V, S28G, S30D, K50A, E55Q, I92N, S93F, I96F
notes: daughter of BIIB-9-578
B13: BIIB-9-3684 (antibody, V domains shown)
VH: B12 VH with T32V, V37N, A55Y, Y60Q
VL: B1 VL with T10S, L11V, S28G, S30D, K50A, E55Q, I92N, S93F, I96F
notes: daughter of BIIB-9-578
B14: BIIB-9-3780 (antibody, V domains shown)
VH: B12 VH with T32S, V37G, T54S, A55Y, F107V
VL: B1 VL with T10S, L11V, S28G, S30D, K50A, E55Q, I92N, S93F, I96F
notes: daughter of BIIB-9-578
B15: BIIB-9-3681 (antibody, V domains shown)
VH: B12 VH with T32G, V37N, T54Q, A55P
VL: B1 VL with T10S, L11V, S28G, S30D, K50A, E55Q, I92N, S93F, I96F
notes: daughter of BIIB-9-578
B16: BIIB-9-3698 (antibody, V domains shown)
VH: B12 VH with S30A, T32S, V37S, T54R, A55G
VL: B1 VL with T10S, L11V, S28G, S30D, K50A, E55Q, I92N, S93F, I96F
notes: daughter of BIIB-9-578
B17: BIIB-9-3704 (antibody, V domains shown)
VH: QVQLQESGPGLVKPSQTLSLTCTVSGGSISSGAYAWSWIRQHPGKGLEWIGYIYYQGKTYYNPSLKSRVTISVDTSKNQFSLKLSSVTAADTAVYYCARDKYQDYSFDIWGQGTMVTVSS
VL: B1 VL with T10S, L11V, S28G, S30D, K50A, E55Q, I92N, S93F, I96F
notes: daughter of BIIB-9-578
B18: BIIB-9-3745 (antibody, V domains shown)
VH: QVQLVQSGAEVKKPGASVKVSCKASGYTFTGYPMHWVRQAPGQGLEWMGSINPSRGSTSYAQKFQGRVTMTRDTSTSTVYMELSSLRSEDTAVYYCARDGPRVSDYYMDVWGKGTTVTVSS
VL: B6 VL with M4L, V13L, L83F, S91R, A92D, P96F
notes: daughter of BIIB-9-619
B19: BIIB-9-3595 (antibody, V domains shown)
VH: EVQLVESGGGLVKPGGSLRLSCAASGFTFSSYSMNWVRQAPGKGLEWVSSISSSSSYIYYADSVKGRFTISRDNAKNSLYLQMNSLRAEDTAVYYCARDLGGYAGYYGMDVWGQGTTVTVSS
VL: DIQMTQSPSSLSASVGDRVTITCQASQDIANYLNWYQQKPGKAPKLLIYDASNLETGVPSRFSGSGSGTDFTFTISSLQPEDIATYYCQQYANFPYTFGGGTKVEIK
B20: BIIB-9-3764 (antibody, V domains shown)
VH: B19 VH with S30G, S33D, S54G, S55E, D62E, L100V
VL: DIQMTQSPSSLSASVGDRVTITCGANQYISDYLNWYQQKPGKAPKLLIYDAANLHTGVPSRFSGSGSGTDFTFTISSLQPEDIATYYCQQYARFPYTFGGGTKVEIK
B21: BIIB-9-3649 (antibody, V domains shown)
VH: B19 VH with S33G, N35A, S50G, L100V
VL: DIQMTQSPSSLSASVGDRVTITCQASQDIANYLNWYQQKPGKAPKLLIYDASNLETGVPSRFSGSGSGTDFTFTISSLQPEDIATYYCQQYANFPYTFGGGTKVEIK
B22: BIIB-9-3618 (antibody, V domains shown)
VH: B19 VH with L18M, S33E, N35V, S50Y, S54G, L100V
VL: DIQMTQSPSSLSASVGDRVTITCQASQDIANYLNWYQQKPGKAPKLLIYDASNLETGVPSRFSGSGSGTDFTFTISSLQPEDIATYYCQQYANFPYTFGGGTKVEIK
B23: BIIB-9-3766 (antibody, V domains shown)
VH: B19 VH with S30G, S33D, S54G, S55E, D62E, L100V
VL: B20 VL with G24E, N26S, Q27E, Y28D, D31N, A52S, H55Q, T56Y, Q89S, R93N
B24: BIIB-9-3754 (antibody, V domains shown)
VH: B19 VH with S30G, S33D, S54G, S55E, D62E, L100V, Y106F
VL: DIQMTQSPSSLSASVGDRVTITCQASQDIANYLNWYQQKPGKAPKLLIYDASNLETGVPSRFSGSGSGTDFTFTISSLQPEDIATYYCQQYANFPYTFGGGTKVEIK
B25: BIIB-9-3617 (antibody, V domains shown)
VH: B19 VH with N35T, S55G, S56T, L100V
VL: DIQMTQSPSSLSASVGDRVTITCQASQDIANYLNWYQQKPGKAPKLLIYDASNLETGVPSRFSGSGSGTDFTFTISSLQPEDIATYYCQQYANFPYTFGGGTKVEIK
B26: BIIB-9-3753 (antibody, V domains shown)
VH: B19 VH with S30G, S33D, S53D, S55A, Y59A, L100V, G101S
VL: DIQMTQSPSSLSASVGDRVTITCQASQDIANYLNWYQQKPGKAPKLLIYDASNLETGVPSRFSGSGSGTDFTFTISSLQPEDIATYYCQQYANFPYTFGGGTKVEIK
B27: BIIB-9-3756 (antibody, V domains shown)
VH: B19 VH with S30G, S33D, S54G, S55E, D62E, A97V, L100V
VL: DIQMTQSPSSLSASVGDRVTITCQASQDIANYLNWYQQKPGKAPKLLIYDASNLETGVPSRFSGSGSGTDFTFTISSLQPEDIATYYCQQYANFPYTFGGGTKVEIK
B28: BIIB-9-3647 (antibody, V domains shown)
VH: B19 VH with S33G, N35V, S54A, L100V
VL: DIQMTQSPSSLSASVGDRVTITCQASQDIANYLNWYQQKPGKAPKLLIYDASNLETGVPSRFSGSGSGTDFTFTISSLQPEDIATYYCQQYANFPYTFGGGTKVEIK
B29: BIIB-9-3650 (antibody, V domains shown)
VH: B19 VH with K13Q, S30G, S33E, S50A, S53A, Y57T, L100V
VL: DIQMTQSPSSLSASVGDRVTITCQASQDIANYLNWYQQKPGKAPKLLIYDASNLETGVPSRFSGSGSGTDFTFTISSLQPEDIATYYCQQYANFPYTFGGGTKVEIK
B30: BIIB-9-3604 (antibody, V domains shown)
VH: B19 VH with S33D, N35V, S54G, S55D, L100V
VL: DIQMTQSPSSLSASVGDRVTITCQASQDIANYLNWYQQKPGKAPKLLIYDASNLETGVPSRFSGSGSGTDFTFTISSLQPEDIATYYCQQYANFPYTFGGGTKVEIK
B31: BIIB-9-3601 (antibody, V domains shown)
VH: B19 VH with Y32F, S54A, S55G, L100V
VL: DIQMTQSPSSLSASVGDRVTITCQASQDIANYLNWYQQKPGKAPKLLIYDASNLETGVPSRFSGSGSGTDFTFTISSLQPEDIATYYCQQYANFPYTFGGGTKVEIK
B32: BIIB-9-3621 (antibody, V domains shown)
VH: B19 VH with S30G, N35A, S50G, S56G, L100V
VL: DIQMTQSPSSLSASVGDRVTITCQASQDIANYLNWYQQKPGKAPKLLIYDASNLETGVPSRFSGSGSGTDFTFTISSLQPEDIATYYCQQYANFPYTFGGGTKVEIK
B33: BIIB-9-3654 (antibody, V domains shown)
VH: B19 VH with S30E, S50G, S54A, L100V
VL: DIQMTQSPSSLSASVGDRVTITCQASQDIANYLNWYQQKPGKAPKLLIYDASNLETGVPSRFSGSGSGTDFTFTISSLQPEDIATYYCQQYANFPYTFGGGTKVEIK

These binders were tested against T1, FIXa-SM (FIXa+EGR-CMK) (human, UniProt P00740 47-191; P00740 227-461, EGR-CMK (L-Glu-Gly-Arg chloromethyl ketone) covalently bound to the active site) (assay: BLI; class meaning: paragraph 914).
T1 construct: BLI antigen bought from Haematologic Technologies (HCIXA-EGR); also called FIXa with substrate mimic

binding result	Binder
binds	B1
binds	B2
binds	B3
binds	B4
binds	B5
binds	B6
binds	B7
binds	B8
binds	B9
binds	B10
binds	B11

Each binder was assayed against T2, free FIXa (activated Factor IX) (human, UniProt P00740 47-191; P00740 227-461) (assay: BLI; class meaning: paragraph 914).
T2 construct: BLI antigen bought from Haematologic Technologies (HCIXA-0050); also called factor IXa

binding result	Binder
binds	B1
binds	B2
binds	B3
binds	B4
binds	B5
binds	B6
binds	B7
binds	B8
binds	B9
binds	B10
binds	B11

Each binder was assayed against T2, free FIXa (activated Factor IX) (assay: yeast display selection and BLI as in Examples 1 and 5).

binding result	Binder
binds	B12
binds	B13
binds	B14
binds	B15
binds	B16
binds	B17
binds	B18
binds	B19
binds	B20
binds	B21
binds	B22
binds	B23
binds	B24
binds	B25
binds	B26
binds	B27
binds	B28
binds	B29
binds	B30
binds	B31
binds	B32
binds	B33
